These results are taken from patent US20210009984A1.

The assay deals with mannose-6-phosphate receptors (M6PR) (human). The assay is described as follows: cell-based or functional assay.

Regarding “agalsidase-beta (from UniProt P06280 32-429) (enzyme)”, the Km value, Michaelis-Menten constant that represents a half of the maximum absorption rate (intracellular absorption in CCD986SK cells, read by enzyme activity after 24 hours) was determined as 0.0109 µM.
Take alpha-galactosidase-Fc fusion protein: the Km value, Michaelis-Menten constant that represents a half of the maximum absorption rate (intracellular absorption in CCD986SK cells, read by enzyme activity after 24 hours) was 0.0116 µM.
